Measurements reported in patent US11851498B2, “Anti-CD276 antibodies (B7H3)” (THE UNITED STATES OF AMERICA, as represented by THE …, priority 2014, dated 2023).
Residue numbers refer to the chain shown, from its start. Entries after “also recorded” stand apart in the source; their conditions may differ. Non-standard residues stand in square brackets, D forms with d. Residues, ends and D or L forms follow the SMILES beside them. *: point of attachment. Dolaproine = CO[C@@H]([C@@H]1CCCN1)[C@@H](C)C(=O)O; Dil = CC[C@H](C)[C@H](NC)[C@@H](CC(=O)O)OC; X1 = C[C@@H](N*)[C@@H](O)c1ccccc1; NMeV = CN[C@H](C(=O)O)C(C)C

Columns and labels:
[1] = tested on: 293/CD276 cells; test: Cell viability of HEK 293 cells transduced with CD276; conditions: FIG. 7
Experimental: (§1) HEK 293 cells (293) or HEK 293 cells transduced with CD276 (293/CD276) were treated with MMAE alone, m8524 (m276) (SEQ ID NOs: 26 and 27) antibody alone, m825 (irrelevant control antibody)-ADC, or m8524-ADC. The drug of the ADCs was MMAE.

[2] = tested on: HEK 293 cells (293); test: Cell viability of untransduced HEK 293 cells; conditions: 293 cells (low CD276); various concentrations (nM); FIG. 7
Experimental: as §1

[3] = tested on: mouse CD276-AP fusion protein; test: ELISA binding assay, mouse CD276; conditions: scFv-Fc fusion protein in culture medium, serially diluted; CD276-AP coated at 2 μg/ml; FIG. 1B
mouse CD276-AP fusion protein, sequence (Q8VE98 29-248 limits assumed): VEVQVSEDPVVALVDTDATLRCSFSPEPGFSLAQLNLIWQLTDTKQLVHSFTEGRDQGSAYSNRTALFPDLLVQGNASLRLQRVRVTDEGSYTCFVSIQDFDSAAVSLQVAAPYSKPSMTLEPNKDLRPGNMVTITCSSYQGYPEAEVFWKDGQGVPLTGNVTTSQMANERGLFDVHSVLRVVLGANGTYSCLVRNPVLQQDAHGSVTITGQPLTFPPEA
Experimental: (§2) The scFv-encoding inserts of the unique clones were digested with SfiI and ligated into modified pSecTag bearing the same set of SfiI sites and Fc-Avi tag for soluble expression. These constructs were transfected into 293T cells for expression following the manufacturer's protocol. After 72 hr of growth, the scFv-Fc fusion proteins in the culture medium were used for the ELISA binding assay.
(§3) 50 μl of the diluted human (FIG. 1A) or mouse (FIG. 1B) CD276-AP fusion protein in PBS at 2 μg/ml was coated in a 96-well plate at 4° C. overnight. Transiently expressed scFv-Fc fusion protein in the culture medium was serially diluted and added into the target protein coated wells. After washing, a 1:3000 diluted horseradish peroxidase (HRP) conjugated goat anti-human IgG antibody was added for 1 hr at RT. After washing, 3, 3, 5, 5′-Tetramethylbenzidine (TMB) substrate was added, and the optical density (O.D.) was read at 450 nm.

[4] = tested on: human CD276-AP fusion protein; test: ELISA binding assay, human CD276; conditions: scFv-Fc fusion protein in culture medium, serially diluted; CD276-AP coated at 2 μg/ml; FIG. 1A
Experimental: as §2, §3

[5] = biological target: T1, human CD276 expressed on the surface of HEK 293 cells (293/CD276) (Homo sapiens, UniProt Q5ZPR3); test: Flow cytometry binding to HEK293 cells transduced with human CD276; format: cell-based; conditions: FITC-labeled IgG1; FIG. 5
T1 construct: expressed in transfected cells; host or cells: HEK293 cells
T1 sequence (Q5ZPR3 29-534): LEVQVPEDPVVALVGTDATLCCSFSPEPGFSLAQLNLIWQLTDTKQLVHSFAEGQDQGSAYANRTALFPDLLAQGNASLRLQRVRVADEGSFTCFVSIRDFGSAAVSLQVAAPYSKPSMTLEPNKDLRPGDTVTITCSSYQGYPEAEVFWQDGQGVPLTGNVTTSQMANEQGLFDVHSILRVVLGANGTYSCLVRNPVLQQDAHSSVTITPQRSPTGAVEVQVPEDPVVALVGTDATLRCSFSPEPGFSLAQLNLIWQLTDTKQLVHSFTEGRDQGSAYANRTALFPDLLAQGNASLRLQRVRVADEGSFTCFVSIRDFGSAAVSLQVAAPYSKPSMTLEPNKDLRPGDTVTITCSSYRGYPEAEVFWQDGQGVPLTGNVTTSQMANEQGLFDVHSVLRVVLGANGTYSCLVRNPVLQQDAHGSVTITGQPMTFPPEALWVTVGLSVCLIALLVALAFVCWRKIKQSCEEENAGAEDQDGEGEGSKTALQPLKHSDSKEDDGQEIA
Experimental: HEK293 cells were untransduced or transduced to express human CD276. The cells were cultured with FITC-labeled human anti-CD276 antibody m8524 IgG1 (SEQ ID NOs: 26 and 27). The binding of the FITC-labeled human anti-CD276 antibody m8524 IgG1 to human CD276 expressed on the cell surface was measured by flow cytometry.

[6] = tested on: MC38 (colon cancer) tumor / normal liver margin; test: Co-immunofluorescence post-staining of intrahepatic MC38 tumors at the normal liver/tumor margin; conditions: MC38 tumor-bearing WT mice; samples post-stained with FITC-labeled IgG1; FIG. 6B
Source text: Samples of the normal liver/tumor margin of MC38 (colon cancer)-tumor bearing, WT mice were post-stained with FITC-labeled human anti-CD276 antibody (m8524 IgG1) (SEQ ID NOs: 26 and 27) (FIG. 6B) or laminin (FIG. 6A). Photographic images were taken.

[7] = tested on: Pan02 pancreatic adenocarcinoma tumors, tumor vasculature and normal tissues; test: In vivo localization of FITC-labeled antibody after IP injection into Pan02 tumor-bearing mice (immunofluorescence); conditions: FITC-labeled IgG1 IP; for localization/staining in tumor (tumor cells and tumor vasculature): co-stain anti-CD31/anti-Meca32
Experimental: CD276 KO mice and CD276 WT mice each bearing Pan02 pancreatic adenocarcinoma tumors were injected (IP) with FITC-labeled 8524 IgG1 (SEQ ID NOs: 26 and 27) and anti-CD31/anti-Meca32. Anti-Meca32 is a monoclonal antibody with specificity for mouse endothelium.
(§4) CD276-positive, Pan02 pancreatic adenocarcinoma tumor-bearing, CD276 KO mice were injected (IP) with FITC-labeled 8524 IgG1 (SEQ ID NOs: 26 and 27) (green staining) and anti-CD31/anti-Meca32 (red staining). CD31/Meca32 positive vessels were stained red. Human tumor cells were stained green. Separate photographic images of the green and red staining were taken, and the images of the red and green staining were merged to provide a third image wherein co-localization of red and green staining provided a yellow signal.
as §4, with “WT” for “KO”
CD276 KO mice and CD276 WT mice each bearing Pan02 pancreatic adenocarcinoma tumors were injected (IP) with FITC-labeled 8524 IgG1 (SEQ ID NOs: 26 and 27) and anti-CD31/anti-Meca32. CD31/Meca32 positive vessels in the normal liver of both CD276 KO and CD276 WT mice and in the tumor vasculature of CD276 WT mice were stained red. Human tumor cells and tumor vasculature were stained green in the CD276 WT mice. Separate photographic images of the green and red staining in the tumor of CD276 WT mice were taken, and the images of the red and green staining were merged to provide a third image wherein co-localization of red and green staining provided a yellow signal. […] The yellow signal indicated the co-localization of the CD31/Meca32 staining (red) with the CD276 staining (green).
CD276 WT mice bearing Pan02 pancreatic adenocarcinoma tumors were injected (IP) with FITC-labeled 8524 IgG1 (SEQ ID NOs: 26 and 27) and anti-CD31/anti-Meca32. CD31/Meca32 positive vessels in normal tissues, including the brain, heart, intestines, liver, muscle, spleen, and stomach of the CD276 WT mice were stained red. Pan02 tumors served as a positive control for the staining of all normal tissues. CD31/Meca32 positive vessels in the tumor vasculature of CD276 WT mice were also stained red. Human tumor cells and tumor vasculature were stained green in the CD276 WT mice. […]

[8] = CD276 WT mice bearing Pan02 tumors

Molecule: CC[C@H](C)[C@@H]([C@@H](CC(=O)N1CCC[C@H]1[C@H](OC)[C@@H](C)C(=O)N[C@H](C)[C@@H](O)c1ccccc1)OC)N(C)C(=O)[C@@H](NC(=O)[C@@H](NC)C(C)C)C(C)C [MMAE, monomethyl auristatin E, reference compound] (H-[NMeV]V[Dil][Dolaproine]-X1)
- cytotoxicity (cell viability, % of control) ([1]; 293/CD276 cells (high CD276), various concentrations (nM)): cytotoxic to all cells
- selectivity for CD276-expressing cells ([1]; 293/CD276 versus 293 cells): no selectivity
- cytotoxicity (cell viability, % of control) [2]: cytotoxic to all cells

B1: m852: anti-CD276 antibody clone, heavy chain comprising SEQ ID NO: 7 and light chain comprising SEQ ID NO: 8 (antibody, V domains shown)
VH: QVQLQQSGAEVKKPGSSVKVSCKASGGTFSSYAISWVRQAPGQGLEWMGGIIPILGIANYAQKFQGRVTITADESTSTAYMELSSLRSEDTAVYYCARGRRSGSYYMGYWGQGTLVTVSS
VL: EIVLTQSPATLSLSPGERATLSCRASQSVSSNLAWYQQKPGQAPRLLIYDTSTRATGIPARFSGSGSGTEFTLTISSLQSEDFAVYYCQQYNNWPPAYTFGQGTKLEIK
- binding to mouse CD276 (OD at 450 nm, ELISA) [3]: bound
- binding to human CD276 (OD at 450 nm, ELISA) [4]: bound

B2: m857: anti-CD276 antibody clone, heavy chain comprising SEQ ID NO: 17 and light chain comprising SEQ ID NO: 18 (antibody, V domains shown)
VH: QVQLQQSGAEVKKPGSSVKVSCKASGGTFSSYAISWVRQAPGQGLEWMGGIIPILGIANYAQKFQGRVTITADESTSTAYMELSSLRSEDTAVYYCATGGSGSYAFDIWGQGTMVTVSS
VL: B1 VL with N32Y, T51A, T53N, E70D, Q79E, S80P, Y91R, N92S, A97S
- binding to mouse CD276 (OD at 450 nm, ELISA) [3]: bound
- binding to human CD276 (OD at 450 nm, ELISA) [4]: bound

B3: m8524 IgG1: human anti-CD276 antibody m8524 in IgG1 format (SEQ ID NOs: 26 and 27), FITC-labeled (antibody, V domains shown)
VH: B2 VH with T98R, A105H, F106M, I108V, Q111K, M114T
VL: EIVLTQSPATLSLSPGERATLSCRASQSVSSYLAWYQQKPGQAPRLLIYDASNRATGIPARFSGSGSGTDFTLTISSLEPEDFAVYYCQQRSNWPPRITFGQGTRLEIK
modifications: FITC label
- binding to CD276-transfected 293 cells as compared to non-transfected parent 293 cells (flow cytometry) [5]: increased binding
- staining at the normal liver/tumor margin [6]: stained tumor cells but not normal tissue
- staining of normal liver ([7]; CD276 WT and CD276 KO mice bearing Pan02 tumors): not the normal liver
- staining of normal tissues (brain, heart, intestines, liver, muscle, spleen, stomach) [7, 8]: did not stain any of the normal tissues
- localization/staining in tumor (tumor cells and tumor vasculature) [7, 8]: co-localization; also recorded: localized to both human tumor cells and tumor vasculature; also recorded: stained tumor cells and tumor vasculature
- localization/staining in tumor (tumor cells and tumor vasculature) ([7]; CD276 WT mice bearing Pan02 tumors, listed as 8524 IgG1): stained tumor cells (green) and tumor vasculature
